# Measured values as given in patent publication US8404239B2, “Anti-Notch2 NRR antibodies” (Genentech, Inc., priority 2008, dated 2013).
# B1: anti-NRR2: affinity matured form of Antibody D, phage library-derived human anti-Notch2 NRR monoclonal antibody (antibody, V domains shown)
# VH: EVQLVESGGGLVQPGGSLRLSCAASGYTFSSYGMSWVRQAPGKGLEWVSYIYPYSGATYYADSVKGRFTISADTSKNTAYLQMNSLRAEDTAVYYCARHSGYYRISSAMDVWGQGTLVTVSA
# VL: DIQMTQSPSSLSASVGDRVTITCRASQNIKRFLAWYQQKPGKAPKLLIYGASTRESGVPSRFSGSGSGTDFTLTISSLQPEDFATYYCQQYYRSPHTFGQGTKVEIKR
# Key:
# Notch2 NRR = assay: ELISA binding to purified Notch2 NRR proteins; details: purified human or mouse protein, up to highest antibody concentration tested
# Excerpt: The N-myc-Notch transgenes were expressed under control of the inducible tet promoter; bottom row, control expression in the absence of induction with doxycycline (−Dox); top row, induced expression following addition of doxycycline (+Dox); note that the K1-CHO line endogenously expresses Notch2, which is detected by anti-NRR2 in the presence and absence of doxycycline (for example, compare panels 7 and 10).
# Anti-Flag antibody was used to capture Flag-Tagged NRR protein from all four Notch receptors in a black walled, high binding plate (Greiner). NRR antibody and E25 control antibodies were bound to the NRR proteins and washed away with PBS. An Alkaline Phosphate conjugated anti-human (H+L) secondary antibody (Jackson ImmunoResearch) was used to detect bound anti-NRR and E25. Unbound secondary was washed away and AP was detected with PNPP substrate (Pierce).
# [1] = test system: intestinal cell differentiation; assay: Histology and immunohistochemistry of mouse intestine tissue; type: in vivo; details: 5 mg/kg, one day after final dosing (FIGS. 15C and 24B)
# Excerpt: (A) Total body weight change (mean+/−standard deviation) vs. time. […] Arrows mark the days of dosing. (B) Immunohistochemical analyses of small intestines. […] In each row as indicated, staining is shown for haemotoxylin and eosin (H & E), Alcian Blue for mucin and to mark secretory goblet cells, lysozyme to mark Paneth cells, Ki-67 for proliferation and Hes1 as a Notch downstream target. See FIGS. 19 and 20 for analyses of the large intestine at day 7 and of the small intestine at day 2, respectively. Bar=40 μm. (C) Comparison of Notch1- versus Notch2-specific inhibition on small intestinal cell differentiation. Small intestines from the study described in (A) were prepared for Alcian Blue and Ki-67 one day after the final dosing with α-gD, α-NRR1 or α-NRR2, as indicated. Bar=50 μm.
# Formalin-fixed and paraffin-embedded mouse small intestine tissues were sectioned at 3 micron thickness. Histochemical identification of intestinal cell types was performed with Alcian blue as recommended by the manufacturer (PolyScientific). For anti-Ki67 staining, sections were pretreated with Target Retrieval Solution (S1700, DAKO), and incubated with rabbit anti-Ki67 (1:200, clone SP6, Neomarkers). Secondary goat anti-rabbit at 7.5 μg/ml (Vector labs) was detected with the Vectastain ABC Elite Kit (Vector labs). Ki67 stained sections were counterstained with Mayer's haemotoxylin. For anti-lysozyme staining, sections were processed on the Discovery XT platform (Ventana Medical Systems, Inc.) using CC1m epitope recovery conditions, OmniMap-rabbit detection and Ventana haemotoxylin II/with bluing counterstain. For HES-1 staining, anti-rat HES-1 (clone NM1, MBL, International) was followed by TSA-HRP.
# The effect of inhibiting both Notch1 and Notch2 on intestinal cell fate determination was also investigated. […] The intestines were harvested and stained with H&E to reveal the crypt morphology. […] Further experimentation confirmed this observation.
molecule,measurement,setting,value
B1,binding to Notch2 NRR proteins,Notch2 NRR,bound specifically
same,"effects on small intestine (goblet cells, Alcian Blue)",[1],did not cause any detectable effects
